Assay results published in paper PMC13046434 (European journal of pharmacology, 2025).
Like-named read-outs stand apart in the source and are kept apart here.

Columns and labels:
WT hNET [1] = molecular target: T1, WT hNET (Homo sapiens, UniProt P23975); assay: kinetic analysis of [3H]DA uptake, WT hNET; type: cell-based; parameters: expressed in transfected cells; host or cells: CHO cells, transient transfection with Lipofectamine 2000
Protocol: (§1) The kinetic parameters of [^3H]DA uptake, maximal velocity (Vmax) and Michalis-Menton constant (Km), were determined in CHO cells transiently transfected with WT hNET and its mutants seeded in 24 well plates as described above. […] After the 10-min incubation period, cells were incubated for 8 min at room temperature with a series of one of six concentrations of mixed [^3H]DA (0.001–1.0 μM, final concentration). The reaction was terminated by the removal of solution from the wells followed by three rapid washes of ice-cold 1 x KRH. Cells were lysed with 500 μL of 1 % SDS for 1 h and radioactivity measured as described above. Specific hNET-mediated DA uptake was calculated by subtracting the nonspecific uptake (in the presence of desipramine and nomifensine) from the total uptake.
Results are presented as mean ± SEM. […] Kinetic parameters (Vmax and Km) were determined from saturation curves by nonlinear regression analysis using a one-site model with variable slope. IC50 values for the substrate and inhibitors for [^3H]DA uptake were determined from nonlinear regression analysis inhibition curves using a one-site model with variable slope. […] Significant differences between samples were analyzed with independent ANOVAs followed by post-hoc tests, which is indicated in the Results Section of the efflux experiments. […]

N198A hNET [2] = molecular target: T2, N198A hNET (Homo sapiens, UniProt P23975, N198A); assay: kinetic analysis of [3H]DA uptake, N198A hNET; type: cell-based; parameters: expressed in transfected cells; host or cells: CHO cells, transient transfection with Lipofectamine 2000
Protocol: as §1
(§2) Results are presented as mean ± SEM. The number of n represents the number of independent experiments from each experiment group. Kinetic parameters (Vmax and Km) were determined from saturation curves by nonlinear regression analysis using a one-site model with variable slope. IC50 values for the substrate and inhibitors for [^3H]DA uptake were determined from nonlinear regression analysis inhibition curves using a one-site model with variable slope. GraphPad Prism (version 10.1.2.) was used to calculate the kinetic parameters and IC50 values for substrate and inhibitors inhibiting [^3H]DA uptake or [^3H] WIN35428. For any experiment involving comparisons between unpaired samples, unpaired Student’s t tests were used to determine any difference between parameters between WT hNET and its mutants. Log-transformed IC50 values were used for statistical comparisons. One-way ANOVA comparisons with repeat measurements were used for analyzing the [^3H]DA and [^3H]MPP^+ efflux data. Significant differences between samples were analyzed with independent ANOVAs followed by post-hoc tests, which is indicated in the Results Section of the efflux experiments. All statistical analyses were performed using the IBM SPSS Statistics version 29 and returned values of at least p < 0.05 were considered significant.

E223A hNET [3] = molecular target: T3, E223A hNET (Homo sapiens, UniProt P23975, E223A); assay: kinetic analysis of [3H]DA uptake, E223A hNET; type: cell-based; parameters: expressed in transfected cells; host or cells: CHO cells, transient transfection with Lipofectamine 2000
Protocol: as §1, §2

E223A hNET [4] = molecular target: T3, E223A hNET; assay: basal [3H]DA and [3H]MPP+ efflux, E223A hNET; type: cell-based; parameters: expressed in transfected cells; host or cells: CHO cells, transient transfection with Lipofectamine 2000; settings: across 90 min, preloaded 50 nM, 20 min
Protocol: (§3) To determine whether N198A or E223A hNET alters transporter conformational transients, [^3H]DA or [^3H]MPP^+ efflux was performed based on our previous studies ([Midde et al., 2015]; [Quizon et al., 2021]). Intact CHO cells in precoated 24-well plates transfected with WT hNET or its mutants were preloaded with [^3H]DA (50 nM final concentration) for 20 min or [^3H]MPP^+ (5 nM final concentration) for 30 min at room temperature. After the preloading period, cells were washed twice with 1 x KRH buffer before collecting fractional release samples. Total uptake of [^3H]DA or [^3H]MPP^+ at the zero time point was estimated from four wells per genotype that were lysed immediately with 1 % SDS after preloading period. Nonspecific uptake of [^3H]DA or [^3H]MPP^+ at zero time point was estimated from four wells per genotype that were incubated with the hNET inhibitors desipramine and nomifensine (100 μM and 10 μM final concentration, respectively) and lysed immediately with 1 % SDS after the preloading period. To collect fractional release, 500 μL of KRH buffer was added into a set of four wells and transferred to scintillation vials after 0 min as the initial fractional efflux. Fresh 500 μL of 1 x KRH buffer was added into the wells and incubated for 10 min then transferred to scintillation vials. Fractional efflux was collected every 10 min for 90 min ([^3H]DA) or 110 min ([^3H]MPP^+). […]

N198A hNET [5] = molecular target: T2, N198A hNET; assay: basal [3H]DA and [3H]MPP+ efflux, N198A hNET; type: cell-based; parameters: expressed in transfected cells; host or cells: CHO cells, transient transfection with Lipofectamine 2000; settings: across 90 min, preloaded 50 nM, 20 min
Protocol: as §3

WT hNET [6] = molecular target: T1, WT hNET; type: binding; parameters: expressed in transfected cells; host or cells: CHO cells, transient transfection with Lipofectamine 2000
E223A hNET [7] = molecular target: T3, E223A hNET; type: binding; parameters: expressed in transfected cells; host or cells: CHO cells, transient transfection with Lipofectamine 2000
N198A hNET [8] = molecular target: T2, N198A hNET; type: binding; parameters: expressed in transfected cells; host or cells: CHO cells, transient transfection with Lipofectamine 2000
E223A hNET [9] = molecular target: T3, E223A hNET
WT hNET [10] = molecular target: T1, WT hNET; assay: Ki of rTat1-86 inhibiting [3H]DA uptake in WT hNET cell suspensions; type: cell-based; parameters: expressed in transfected cells; host or cells: CHO cells, transient transfection with Lipofectamine 2000
Protocol: To determine the inhibitor constant (Ki) of rTat1-86 inhibiting DA uptake in WT hNET, cells in 10 cm plates were cultured and transfected with WT hNET as described above. All reagents were made in 1 x KRH containing 0.1 % Protease Inhibitor Cocktail 1 (P2850, Sigma-Aldrich) and 0.1 % Protease Inhibitor Cocktail (P8340, Sigma-Aldrich). Cells were detached and harvested as described above. The cell suspensions were then incubated with a range of rTat1-86 (0.25–140 nM, final concentrations) for 20 min at room temperature. […] The reaction was then terminated as described above.

N198A hNET [11] = molecular target: T2, N198A hNET
WT hNET [12] = molecular target: T1, WT hNET
[13] = per 10^6 cells, DA 0.001-1.0 μM

T3 sequence (P23975 whole entry E223A): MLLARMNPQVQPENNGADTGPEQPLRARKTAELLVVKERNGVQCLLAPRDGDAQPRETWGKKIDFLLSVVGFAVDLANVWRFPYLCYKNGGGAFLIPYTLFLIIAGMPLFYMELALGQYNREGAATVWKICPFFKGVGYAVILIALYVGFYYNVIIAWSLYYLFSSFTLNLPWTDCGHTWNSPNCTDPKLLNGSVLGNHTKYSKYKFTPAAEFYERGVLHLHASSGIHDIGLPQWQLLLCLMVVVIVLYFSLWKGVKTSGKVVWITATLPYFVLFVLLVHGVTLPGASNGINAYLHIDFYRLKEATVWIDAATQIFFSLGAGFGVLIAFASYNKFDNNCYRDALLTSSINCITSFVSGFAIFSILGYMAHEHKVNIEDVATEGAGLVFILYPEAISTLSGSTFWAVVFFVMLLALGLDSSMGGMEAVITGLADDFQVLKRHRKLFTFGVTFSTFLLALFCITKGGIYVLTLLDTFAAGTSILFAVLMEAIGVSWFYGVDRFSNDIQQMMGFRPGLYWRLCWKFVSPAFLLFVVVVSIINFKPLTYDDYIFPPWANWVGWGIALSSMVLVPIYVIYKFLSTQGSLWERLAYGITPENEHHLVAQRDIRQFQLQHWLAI
T1 sequence (P23975 whole entry): as the sequence (P23975 whole entry E223A) above, with A223E counted along it
T2 sequence (P23975 whole entry N198A): as the sequence (P23975 whole entry E223A) above, with N198A, A223E counted along it

## NCCc1ccc(O)c(O)c1 [[^3H]DA, 3,4-ethyl-2[N-P^3PH]dihydroxyphenylethylamine]
WT hNET [1]
  Km: 0.057 ± 0.008 µM
N198A hNET [2]
  Km: 0.084 ± 0.02 µM
E223A hNET [3]
  Km: 0.066 ± 0.011 µM

## [3H]c1c([3H])c(CCN)c([3H])c(O)c1O [[^3H]DA, 3,4-ethyl-2[N-P^3PH]dihydroxyphenylethylamine]
E223A hNET [4]
  overall [3H]DA efflux compared to WT hNET: significantly reduced
WT hNET [1]; [13]
  Vmax of [3H]DA uptake: 525.4 ± 89.8 fmol/min/10^6
N198A hNET [5]
  overall [3H]DA efflux compared to WT hNET: significantly reduced
N198A hNET [2]
  reduction in Vmax of [3H]DA uptake compared to WT hNET: 82.6%
N198A hNET [2]; [13]
  Vmax of [3H]DA uptake: 91.4 ± 16.4 fmol/min/10^6
E223A hNET [3]
  reduction in Vmax of [3H]DA uptake compared to WT hNET: 71.2%
E223A hNET [3]; [13]
  Vmax of [3H]DA uptake: 151.1 ± 14.5 fmol/min/10^6

## COC(=O)[C@H]1[C@@H](c2ccc(F)cc2)C[C@@H]2CC[C@H]1N2C [[^3H]WIN35428]
WT hNET [6]
  specific [3H]WIN35428 binding: 14083 ± 1198 DPM
  specific [3H]WIN35428 binding normalized as a percentage of WT hNET: 100 ± 8.5%
E223A hNET [7]
  specific [3H]WIN35428 binding: 11806 ± 567 DPM
  specific [3H]WIN35428 binding normalized as a percentage of WT hNET: 83.83 ± 4.0
N198A hNET [8]
  specific [3H]WIN35428 binding: 11361 ± 652 DPM
  specific [3H]WIN35428 binding normalized as a percentage of WT hNET: 80.67 ± 4.6%

## rTat1-86: recombinant HIV-1 transactivator of transcription (rTat1-86), purchased from ImmunoDX
E223A hNET [9]; 8.75 nM rTat1-86
  Tat-induced reduction of [3H]DA uptake compared to its control: attenuated
E223A hNET [9]; 8.75 nM rTat1-86 (without Tat: 2113 ± 237)
  specific [3H]DA uptake with Tat, direct counts: 1950 ± 215 DPM
E223A hNET [9]; 140 nM rTat1-86
  reduction of specific [3H]DA uptake relative to control: 26.98%
E223A hNET [9]; 140 nM rTat1-86 (without Tat: 1711 ± 261)
  specific [3H]DA uptake with Tat, direct counts: 1206 ± 239 DPM
WT hNET [10]; 8.75 nM rTat1-86, approximately 2.6-fold the Ki
  predicted occupancy of hNET molecules: ~ 72%
WT hNET [10]; 140 nM rTat1-86, approximately 41.2-fold the Ki
  predicted occupancy of hNET molecules: ~ 98%
WT hNET [10]; WT hNET, Tat concentrations from 8.75 nM to 140 nM
  plateau of Tat's inhibitory effect on DA uptake: 65.2%
WT hNET [10]; WT hNET, rTat1-86 0.25-140 nM, 20 min, 50 nM [3H]DA, read-out: Ki for inhibiting hNET-mediated DA uptake
  Ki: 3.4 nM
N198A hNET [11]; 8.75 nM rTat1-86
  Tat-induced reduction of [3H]DA uptake compared to its control: attenuated
N198A hNET [11]; 8.75 nM rTat1-86 (without Tat: 1934 ± 210)
  specific [3H]DA uptake with Tat, direct counts: 1883 ± 175 DPM
N198A hNET [11]; 140 nM rTat1-86
  Tat-induced reduction of [3H]DA uptake compared to its control: attenuated
N198A hNET [11]; 140 nM rTat1-86 (without Tat: 912 ± 212)
  specific [3H]DA uptake with Tat, direct counts: 954 ± 213 DPM
WT hNET [12]; 8.75 nM rTat1-86
  reduction of specific [3H]DA uptake relative to control: 24.2%
WT hNET [12]; 8.75 nM rTat1-86 (without Tat: 2778 ± 240)
  specific [3H]DA uptake with Tat, direct counts: 2106 ± 191 DPM
WT hNET [12]; 140 nM rTat1-86
  reduction of specific [3H]DA uptake relative to control: 34.22%
WT hNET [12]; 140 nM rTat1-86 (without Tat: 1870 ± 238)
  specific [3H]DA uptake with Tat, direct counts: 1230 ± 163 DPM
WT hNET [12]; 140 nM rTat1-86, listed as recombinant Tat1-86
  reduction of specific [3H]DA uptake relative to control: 34%
